Assay [1] deals with T1, G9a and GLP (Homo sapiens, UniProt Q96KQ7+Q9H9B1).
T1 sequence (Q96KQ7 2-1210 limits assumed): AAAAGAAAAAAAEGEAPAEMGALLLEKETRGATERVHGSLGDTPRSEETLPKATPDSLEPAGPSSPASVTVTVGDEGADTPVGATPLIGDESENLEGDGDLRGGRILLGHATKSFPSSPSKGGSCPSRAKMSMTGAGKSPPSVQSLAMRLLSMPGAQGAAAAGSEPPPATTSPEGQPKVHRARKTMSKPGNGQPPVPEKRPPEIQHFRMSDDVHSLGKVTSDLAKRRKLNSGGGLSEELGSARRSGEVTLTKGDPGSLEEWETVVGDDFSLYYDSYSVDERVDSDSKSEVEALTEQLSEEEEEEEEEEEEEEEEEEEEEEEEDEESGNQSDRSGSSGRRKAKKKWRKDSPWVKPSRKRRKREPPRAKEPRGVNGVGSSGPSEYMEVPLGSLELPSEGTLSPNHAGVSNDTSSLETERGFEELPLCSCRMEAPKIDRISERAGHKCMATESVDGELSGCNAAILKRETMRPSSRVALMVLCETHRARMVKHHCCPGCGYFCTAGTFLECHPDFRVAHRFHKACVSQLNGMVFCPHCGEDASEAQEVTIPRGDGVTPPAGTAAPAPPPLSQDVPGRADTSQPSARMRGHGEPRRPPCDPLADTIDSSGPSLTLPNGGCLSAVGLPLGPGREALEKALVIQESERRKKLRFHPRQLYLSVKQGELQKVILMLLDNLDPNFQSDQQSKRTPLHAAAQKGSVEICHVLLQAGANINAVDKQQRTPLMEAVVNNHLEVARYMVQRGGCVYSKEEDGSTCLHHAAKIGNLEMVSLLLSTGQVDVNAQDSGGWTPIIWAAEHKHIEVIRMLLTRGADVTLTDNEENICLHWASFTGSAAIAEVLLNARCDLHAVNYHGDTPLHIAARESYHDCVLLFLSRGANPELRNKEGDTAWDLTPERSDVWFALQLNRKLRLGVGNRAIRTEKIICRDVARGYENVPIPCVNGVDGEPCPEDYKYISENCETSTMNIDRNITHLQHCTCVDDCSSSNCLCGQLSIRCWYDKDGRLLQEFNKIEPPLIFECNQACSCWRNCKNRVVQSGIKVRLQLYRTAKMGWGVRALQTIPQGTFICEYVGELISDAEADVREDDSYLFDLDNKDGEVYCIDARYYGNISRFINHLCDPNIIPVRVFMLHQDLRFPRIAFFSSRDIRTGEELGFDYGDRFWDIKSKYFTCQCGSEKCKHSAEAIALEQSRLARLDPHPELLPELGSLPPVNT
T1 sequence (Q9H9B1 2-1298 limits assumed): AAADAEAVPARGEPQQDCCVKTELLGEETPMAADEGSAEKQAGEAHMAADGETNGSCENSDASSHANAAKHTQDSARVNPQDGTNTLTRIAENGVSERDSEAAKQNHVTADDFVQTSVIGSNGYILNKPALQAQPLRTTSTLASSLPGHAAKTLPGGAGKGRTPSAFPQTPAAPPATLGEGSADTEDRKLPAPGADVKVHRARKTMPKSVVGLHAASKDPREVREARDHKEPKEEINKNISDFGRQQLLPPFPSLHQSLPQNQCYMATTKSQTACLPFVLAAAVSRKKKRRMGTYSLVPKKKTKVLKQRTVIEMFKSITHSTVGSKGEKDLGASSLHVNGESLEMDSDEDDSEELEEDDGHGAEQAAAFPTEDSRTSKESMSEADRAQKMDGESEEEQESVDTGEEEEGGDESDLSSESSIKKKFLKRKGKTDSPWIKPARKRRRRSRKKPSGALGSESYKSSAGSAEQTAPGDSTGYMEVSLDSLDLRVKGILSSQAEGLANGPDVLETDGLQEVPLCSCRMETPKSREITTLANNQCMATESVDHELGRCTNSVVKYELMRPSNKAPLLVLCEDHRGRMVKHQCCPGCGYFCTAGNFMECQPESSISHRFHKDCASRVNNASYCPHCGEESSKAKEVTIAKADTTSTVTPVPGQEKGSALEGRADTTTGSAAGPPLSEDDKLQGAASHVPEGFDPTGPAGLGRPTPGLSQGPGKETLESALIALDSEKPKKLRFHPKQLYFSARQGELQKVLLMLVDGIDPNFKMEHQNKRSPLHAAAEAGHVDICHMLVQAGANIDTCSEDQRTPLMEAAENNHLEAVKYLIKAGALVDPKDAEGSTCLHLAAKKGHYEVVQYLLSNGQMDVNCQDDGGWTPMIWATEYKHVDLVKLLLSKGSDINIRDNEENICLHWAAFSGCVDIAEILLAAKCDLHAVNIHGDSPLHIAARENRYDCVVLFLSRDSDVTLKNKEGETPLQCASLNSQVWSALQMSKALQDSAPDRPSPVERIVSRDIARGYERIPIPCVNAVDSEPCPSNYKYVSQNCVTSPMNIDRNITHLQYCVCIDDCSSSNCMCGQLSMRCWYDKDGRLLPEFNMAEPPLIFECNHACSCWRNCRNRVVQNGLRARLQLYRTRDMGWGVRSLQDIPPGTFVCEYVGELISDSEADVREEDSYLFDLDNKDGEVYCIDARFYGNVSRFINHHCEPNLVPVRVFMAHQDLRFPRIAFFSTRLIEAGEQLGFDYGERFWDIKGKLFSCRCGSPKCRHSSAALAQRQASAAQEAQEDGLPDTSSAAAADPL
In words: Triple SILAC pull-down after UNC0638 treatment of 293T cells, DMSO/UNC0638 ratio of protein captured by 3×MBT.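 On all read-outs here: mass spectrometry (Q-Exactive) SILAC quantitation, DMSO/UNC0638 ratio computed after subtracting 3×MBTD355N mutant pull-down background, only proteins with at least twofold 3×MBT over mutant signal considered.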 Format: cell-based. More on the design: endogenous in cells; host or cells: HEK 293T. To be noted: for Relative to UNC0638 UNC Heavy / Relative to UNC0638 UNC Light: SILAC ratio DMSO/UNC0638 of protein pulled down with 3xMBT; for Relative to UNC0638 UNC Heavy: UNC0638 in heavy SILAC media; for Relative to UNC0638 UNC Light: UNC0638 in light SILAC media; for Relative to UNC0638 Average: average of UNC Light and UNC Heavy experiments.

Assay [2] deals with 3×MBT domain of L3MBTL1. In words: Triple SILAC pull-down, 3xMBT/3xMBTD355N ratio (cytoplasmic, nuclear and chromatin fractions of 293T cells).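 On all read-outs here: proteins quantified with MaxQuant, requiring at least two unique peptides and quantification in both label directions, normalized to the mean of proteins from a digested loading control.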 Format: binding, human. The note with it: SILAC ratio, pull-down 3xMBT vs 3xMBTD355N; for 3xMBT/D355N UNC Heavy: experiment with UNC0638 in heavy SILAC media; for 3xMBT/D355N UNC Light: experiment with UNC0638 in light SILAC media.

B1: C22orf28 (protein, UniProt Q9Y3I0 1-505, looked up)
RNA-splicing ligase RtcB …: MSRSYNDELQFLEKINKNCWRIKKGFVPNMQVEGVFYVNDALEKLMFEELRNACRGGGVGGFLPAMKQIGNVAALPGIVHRSIGLPDVHSGYGFAIGNMAAFDMNDPEAVVSPGGVGFDINCGVRLLRTNLDESDVQPVKEQLAQAMFDHIPVGVGSKGVIPMNAKDLEEALEMGVDWSLREGYAWAEDKEHCEEYGRMLQADPNKVSARAKKRGLPQLGTLGAGNHYAEIQVVDEIFNEYAAKKMGIDHKGQVCVMIHSGSRGLGHQVATDALVAMEKAMKRDKIIVNDRQLACARIASPEGQDYLKGMAAAGNYAWVNRSSMTFLTRQAFAKVFNTTPDDLDLHVIYDVSHNIAKVEQHVVDGKERTLLVHRKGSTRAFPPHHPLIAVDYQLTGQPVLIGGTMGTCSYVLTGTEQGMTETFGTTCHGAGRALSRAKSRRNLDFQDVLDKLADMGIAIRVASPKLVMEEAPESYKNVTDVVNTCHDAGISKKAIKLRPIAVIKG
As for B1, in assay [1], the “Relative to UNC0638 UNC Heavy” value was 0.08 log base 2, the “Relative to UNC0638 UNC Light” value is on record as 0.22 log base 2 and the “Relative to UNC0638 Average” value stood at 0.15 log base 2. For the same molecule, in assay [2], the “3xMBT/D355N UNC Heavy” value was found to be 2.49 log base 2 and the “3xMBT/D355N UNC Light” value stood at 2.67 log base 2.

B2: EIF4E2 (protein, UniProt O60573 1-245, looked up)
Eukaryotic translation …: MNNKFDALKDDDSGDHDQNEENSTQKDGEKEKTERDKNQSSSKRKAVVPGPAEHPLQYNYTFWYSRRTPGRPTSSQSYEQNIKQIGTFASVEQFWRFYSHMVRPGDLTGHSDFHLFKEGIKPMWEDDANKNGGKWIIRLRKGLASRCWENLILAMLGEQFMVGEEICGAVVSVRFQEDIISIWNKTASDQATTARIRDTLRRVLNLPPNTIMEYKTHTDSIKMPGRLGPQRLLFQNLWKPRLNVP
For the molecule B2, in assay [1], the “Relative to UNC0638 UNC Heavy” value worked out at 0.24 log base 2, the “Relative to UNC0638 UNC Light” value is 0.06 log base 2 and the “Relative to UNC0638 Average” value was determined as 0.15 log base 2. In addition, in assay [2], the “3xMBT/D355N UNC Heavy” value is given as 1.89 log base 2 and the “3xMBT/D355N UNC Light” value is on record as 2.26 log base 2.

B3: EEF1D (protein, UniProt P29692 2-281, looked up)
Elongation factor 1-delta: ATNFLAHEKIWFDKFKYDDAERRFYEQMNGPVAGASRQENGASVILRDIARARENIQKSLAGSSGPGASSGTSGDHGELVVRIASLEVENQSLRGVVQELQQAISKLEARLNVLEKSSPGHRATAPQTQHVSPMRQVEPPAKKPATPAEDDEDDDIDLFGSDNEEEDKEAAQLREERLRQYAEKKAKKPALVAKSSILLDVKPWDDETDMAQLEACVRSIQLDGLVWGASKLVPVGYGIRKLQIQCVVEDDKVGTDLLEEEITKFEEHVQSVDIAAFNKI
Consider B3, for which, in assay [1], the “Relative to UNC0638 UNC Heavy” value is given as 0.11 log base 2, the “Relative to UNC0638 UNC Light” value amounted to 0.20 log base 2 and the “Relative to UNC0638 Average” value was 0.15 log base 2. For the same molecule, in assay [2], the “3xMBT/D355N UNC Heavy” value was found to be 3.34 log base 2 and the “3xMBT/D355N UNC Light” value is 3.56 log base 2.

B4: ZC3HAV1L (protein, UniProt Q96H79 2-300, looked up)
Zinc finger CCCH-type …: AEPTVCSFLTKVLCAHGGRMFLKDLRGHVELSEARLRDVLQRAGPERFLLQEVETQEGLGDAEAEAAAGAVGGGGTSAWRVVAVSSVRLCARYQRGECQACDQLHFCRRHMLGKCPNRDCWSTCTLSHDIHTPVNMQVLKSHGLFGLNENQLRILLLQNDPCLLPEVCLLYNKGEALYGYCNLKDKCNKFHVCKSFVKGECKLQTCKRSHQLIHAASLKLLQDQGLNIPSVVNFQIISTYKHMKLHKMLENTDNSSPSTEHSQGLEKQGVHAAGAAEAGPLASVPAQSAKKPCPVSCEK
Turning to B4, in assay [1], the “Relative to UNC0638 UNC Heavy” value was 0.14 log base 2, the “Relative to UNC0638 UNC Light” value was 0.16 log base 2 and the “Relative to UNC0638 Average” value turned out to be 0.15 log base 2. For the same molecule, in assay [2], the “3xMBT/D355N UNC Heavy” value was 1.71 log base 2 and the “3xMBT/D355N UNC Light” value was 2.00 log base 2.

B5: SNRPA1 (protein, UniProt P09661 2-255, looked up)
U2 small nuclear …: VKLTAELIEQAAQYTNAVRDRELDLRGYKIPVIENLGATLDQFDAIDFSDNEIRKLDGFPLLRRLKTLLVNNNRICRIGEGLDQALPCLTELILTNNSLVELGDLDPLASLKSLTYLSILRNPVTNKKHYRLYVIYKVPQVRVLDFQKVKLKERQEAEKMFKGKRGAQLAKDIARRSKTFNPGAGLPTDKKKGGPSPGDVEAIKNAIANASTLAEVERLKGLLQSGQIPGRERRSGPTDDGEEEMEEDTVTNGS
In the case of B5, in assay [1], the “Relative to UNC0638 UNC Heavy” value is 0.08 log base 2, the “Relative to UNC0638 UNC Light” value was 0.22 log base 2 and the “Relative to UNC0638 Average” value was determined as 0.15 log base 2. In assay [2], the “3xMBT/D355N UNC Heavy” value is listed as 2.94 log base 2 and the “3xMBT/D355N UNC Light” value is 3.39 log base 2.

For the origin of these results see US20140274782A1, “AFFINITY REAGENTS AND METHODS FOR DETECTION, PURIFICATION, AND PROTEOMIC ANALYSIS OF METHYLATED PROTEINS” (The Board of Trustees of the Leland Stanford Junior …, priority 2013, published 2014).
